For the experiment, the target named is T1, rat VEGF (in rat serum) (rat, UniProt P16612-2 27-190, limits assumed).
T1 construct: also called VEGF in rat serum samples
T1 sequence (looked up): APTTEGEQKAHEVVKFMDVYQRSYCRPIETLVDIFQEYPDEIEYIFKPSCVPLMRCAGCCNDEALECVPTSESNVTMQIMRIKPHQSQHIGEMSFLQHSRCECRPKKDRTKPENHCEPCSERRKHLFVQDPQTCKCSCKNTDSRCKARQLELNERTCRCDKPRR
The experiment can be described thus: Western blot, cell supernatant as primary antibody.

B1: anti-VEGF Fab expressed by the MDR6 plasmid (culture supernatant of transfected cells) (Fab, V domains shown)
VH: EVQLVESGGGLVQPGGSLRLSCAASGYDFTHYGMNWVRQAPGKGLEWVGWINTYTGEPTYAADFKRRFTFSLDTSKSTAYLQMNSLRAEDTAVYYCAKYPYYYGTSHWYFDVWGQGTLVTVSS
VL: DIQLTQSPSSLSASVGDRVTITCSASQDISNYLNWYQQKPGKAPKVLIYFTSSLHSGVPSRFSGSGSGTDFTLTISSLQPEDFATYYCQQYSTVPWTFGQGTKVEIKR
notes: also called M6
As for B1, the binding result was “no binding (tested: 5 ug of rat serum)”.

The record behind these values is EP4368203A1 (Wuhan Neurophth Biotechnology Limited Company, dated 2024).
